Data taken from patent US7741110.

Key:
[1] = test system: E2C-RE-VP64 (hRXRa + Drosophila EcR LBDs) (synthetic); assay: cell_activity; conditions: Ponasterone A-induced; significant basal activity
[2] = test system: B3 three-finger zinc finger protein (Sp1C framework, designed) (synthetic); assay: EMSA; conditions: Zn buffer (90 uM ZnCl2, 90 mM KCl, 1 mM MgCl2), 3 h room temperature
[3] = biological target: VP16-C7-ER (synthetic) (UniProt P08046); assay: cell_activity; conditions: 4-OHT-induced, HeLa; no response to RU486
[4] = biological target: VP16-C7-PR (synthetic) (UniProt P08046); assay: cell_activity; conditions: RU486-induced, HeLa; no response to 4-OHT
[5] = biological target: VP64-C7-PR (Zif268 variant C7 + hPR LBD aa645-914) (synthetic) (UniProt P08046); assay: cell_activity; conditions: HeLa luciferase, RU486-induced
[6] = biological target: VP64-C7-ER (Zif268 variant C7 + mER LBD G525R) (synthetic) (UniProt P08046); assay: cell_activity; conditions: HeLa luciferase, 4-OHT-induced

Sequence “GGGGCCGGAGCCGCAGTG (double strand) [E2C-TATA-luc single E2C site]” has an activity [1] of 3 fold.

In the case of “GGAGGGGAC [B3 target site oligonucleotide]”, the Kd [2] is reported as 15 nM.

“GCGTGGGCG (double strand) [10xC7-TATA-luc]” showed an activity [3] of 43 fold and an activity [4] of 26 fold.

With “GAGGGTACCGCGTGGGCGAAAAAGCGTGGGCGAGTCGACTCTAGAGGGTATATAATGG (double strand) [C7 direct repeat, 3 bp spacer, TATA reporter]” the activity [5] was 3.9 fold and the activity [6] was 9.5 fold.
